# In patent publication US20120238509A1:
# No end group written: not given here. *: point of attachment. Acm = CC(=O)NC*
# B1: [Cys^1, 51(Acm)]-hUcn2(1-51)-OH) (peptide)
# peptide: C(Acm)SPTRHPGSRIVLSLDVPIGLLQILLEQARARAAREQATTNARILARVGHC(Acm)-OH
# B2: hUcn 2 prohormone (peptide)
# peptide: IPTFQLRPQNSPQTTPRPAASESPSAAPTWPWAAQSHCSPTRHPGSRIVLSLDVPIGLLQILLEQARARAAREQATTNARILARV
# modifications: here or on the partner: amidated at the C-terminus
# B3: mUcn 2 prohormone (peptide)
# peptide: TPIPTFQLLPQNSLETTPSSVTSESSSGTTTGPSASWSNSKASPYLDTRVILSLDVPIGLLRILLEQARYKAARNQAATNAQILAHV
# modifications: here or on the partner: amidated at the C-terminus
# Target: CRFR^2 expressed by A7r5 cells, P47866
# Assay: cell-based or functional assay
# CRFR^2 expressed by A7r5 cells, P47866, sequence (P47866 20-411): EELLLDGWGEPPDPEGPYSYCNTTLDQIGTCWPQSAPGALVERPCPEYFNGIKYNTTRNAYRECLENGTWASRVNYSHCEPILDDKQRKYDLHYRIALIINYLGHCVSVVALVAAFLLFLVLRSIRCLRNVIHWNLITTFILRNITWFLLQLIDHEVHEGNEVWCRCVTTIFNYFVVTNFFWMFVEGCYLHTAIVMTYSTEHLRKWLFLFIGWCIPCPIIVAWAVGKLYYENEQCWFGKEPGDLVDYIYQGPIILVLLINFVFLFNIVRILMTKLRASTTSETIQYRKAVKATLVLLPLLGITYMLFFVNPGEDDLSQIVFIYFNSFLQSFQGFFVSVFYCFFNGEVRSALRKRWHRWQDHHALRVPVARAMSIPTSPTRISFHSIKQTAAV
row,"cAMP A7r5 (EC50, nM) [nM]",Binder
1,2.9,IVLSLDVPIGLLQILLEQARARAAREQATTNARILARVGH-OH [hUcn 2-GH-OH]
2,0.05,RVILSLDVPIGLLRILLEQARYKAARNQAATNAQILAHV-NH2 [R^0-mUcn 2]
3,9.5,B1
4,0.11,IVLSLDVPIGLLQILLEQARARAAREQATTNARILARV-NH2 [hUcn 2]
5,2.3,B2
6,90.4,IVLSLDVPIGLLQILLEQARARAAREQATTNARILARV-OH [hUcn 2-OH]
7,0.09,HPGSRIVLSLDVPIGLLQILLEQARARAAREQATTNARILARV-NH2 [SRP (HPGSR-hUcn 2)]
8,13.9,IVLSLDVPIGLLQILLEQARARAAREQATTNARILARVGHC-OH [hUcn 2-GHC-OH]
9,0.027,RIVLSLDVPIGLLQILLEQARARAAREQATTNARILARV-NH2 [R^0-hUcn 2]
10,0.53,B3
11,0.07,VILSLDVPIGLLRILLEQARYKAARNQAATNAQILAHV-NH2 [mUcn 2]
12,6.3,IVLSLDVPIGLLQILLEQARARAAREQATTNARILARVG-OH [hUcn 2-G-OH]
